{"source": "paper PMC2868900", "about": "“Interaction between Thymidylate Synthase and Its Cognate mRNA in Zebrafish Embryos”", "binders": {"B1": {"name": "Δ20-18-TS RNA (structured_RNA)", "RNA": "CUCUUCAUGUGCUGCAGGAU"}, "B2": {"name": "Δ20-23-TS RNA (Δ20-22 in Table 1) (structured_RNA)", "RNA": "CUCUUGUUGUAAAGCAGGAU"}, "B3": {"name": "TS:N20 (TS13-32) (structured_RNA)", "RNA": "CUCUUGUUGUGCUGCAGGAU"}, "B4": {"name": "Δ20-TS RNA (structured_RNA)", "RNA": "CUCUUGUUGUGCAGGAU"}}, "key": {"[1]": {"biological_target": "T1, thymidylate synthase (TS) (zebrafish, UniProt A0ACM8Q3Q5 1-318)", "T1 sequence (A0ACM8Q3Q5 entry or part of it)": "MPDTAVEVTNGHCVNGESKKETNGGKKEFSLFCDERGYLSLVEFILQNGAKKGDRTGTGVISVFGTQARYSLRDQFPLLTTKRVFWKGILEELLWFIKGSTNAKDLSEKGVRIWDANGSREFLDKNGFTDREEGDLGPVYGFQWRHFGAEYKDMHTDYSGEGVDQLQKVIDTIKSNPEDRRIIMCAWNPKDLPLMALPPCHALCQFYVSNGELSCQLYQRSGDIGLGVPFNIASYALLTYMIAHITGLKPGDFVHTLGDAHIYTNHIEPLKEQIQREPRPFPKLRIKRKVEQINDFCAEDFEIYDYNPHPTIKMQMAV", "experiment": "EMSA; 100 ng TS; 37 C, 10 min; 100 ng TS (200 ng in Fig. 5B legend), 1 ng 32P TS mRNA; non-denaturing 5% acrylamide gel (60:1); binding buffer, salt and pH not given (cited ref. 16)", "conditions": "protein: recombinant, tags: His-tag removed by thrombin, chain copies: 2, hairpin (MFold)"}, "[2]": {"biological_target": "T1, thymidylate synthase (TS)", "experiment": "competition EMSA; vs 32P full-length TS mRNA; 37 C, 10 min; 100 ng TS (200 ng in Fig. 5B legend), 1 ng 32P TS mRNA; non-denaturing 5% acrylamide gel (60:1); binding buffer, salt and pH not given (cited ref. 16)", "conditions": "protein: recombinant; tags: His-tag removed by thrombin; chain copies: 2; hairpin (MFold), 6 nt loop"}}, "data": [{"binder": "B1", "values": [{"measurement": "binding result", "setting": "[1]; 5 nt loop", "value": "no binding"}]}, {"binder": "B2", "values": [{"measurement": "binding result", "setting": "[1]; 4 nt loop", "value": "no binding"}]}, {"binder": "B3", "values": [{"measurement": "IC50", "setting": "[2]", "value": "620 ± 200", "unit": "pM"}]}, {"binder": "B4", "values": [{"measurement": "binding result", "setting": "[1]", "value": "no binding"}]}]}
